Measured values: patent publication US20260092093A1 (TJ BIOPHARMA SHANGHAI, published 2026)
Numbering of substitutions follows the chain as printed.

T1: hIL-18 receptor (hIL-18Rα and hIL-18Rβ) (human, UniProt Q13478 19-541; O95256 20-599)
T1 sequence (looked up) 1: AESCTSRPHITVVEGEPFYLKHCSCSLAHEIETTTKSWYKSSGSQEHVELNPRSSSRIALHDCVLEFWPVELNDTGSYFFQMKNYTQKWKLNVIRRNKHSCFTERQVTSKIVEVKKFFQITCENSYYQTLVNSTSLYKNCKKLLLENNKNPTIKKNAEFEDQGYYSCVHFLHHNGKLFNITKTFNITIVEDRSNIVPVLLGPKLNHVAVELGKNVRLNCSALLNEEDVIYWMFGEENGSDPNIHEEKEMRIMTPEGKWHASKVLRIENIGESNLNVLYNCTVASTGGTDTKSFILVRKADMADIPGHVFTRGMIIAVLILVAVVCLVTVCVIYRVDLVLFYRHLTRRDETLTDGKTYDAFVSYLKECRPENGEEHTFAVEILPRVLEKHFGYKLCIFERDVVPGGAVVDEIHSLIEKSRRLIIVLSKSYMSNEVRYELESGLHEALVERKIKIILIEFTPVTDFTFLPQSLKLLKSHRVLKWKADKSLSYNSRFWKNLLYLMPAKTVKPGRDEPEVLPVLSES
T1 sequence (looked up) 2: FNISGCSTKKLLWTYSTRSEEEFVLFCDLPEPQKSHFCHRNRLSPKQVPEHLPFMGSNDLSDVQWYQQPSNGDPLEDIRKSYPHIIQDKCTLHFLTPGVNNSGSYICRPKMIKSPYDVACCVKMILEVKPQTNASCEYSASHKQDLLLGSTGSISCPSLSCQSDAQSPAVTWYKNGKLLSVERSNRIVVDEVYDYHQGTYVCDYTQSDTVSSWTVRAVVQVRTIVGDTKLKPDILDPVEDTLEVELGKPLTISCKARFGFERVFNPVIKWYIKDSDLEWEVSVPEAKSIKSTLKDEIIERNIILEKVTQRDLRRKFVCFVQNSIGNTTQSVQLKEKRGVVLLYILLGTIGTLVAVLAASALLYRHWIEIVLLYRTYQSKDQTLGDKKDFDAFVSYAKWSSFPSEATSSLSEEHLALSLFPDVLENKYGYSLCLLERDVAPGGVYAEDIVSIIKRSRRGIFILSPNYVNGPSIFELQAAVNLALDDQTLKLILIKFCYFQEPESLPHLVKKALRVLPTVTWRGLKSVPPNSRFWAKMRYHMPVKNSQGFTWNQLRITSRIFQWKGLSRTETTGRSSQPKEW

T2: hIL-18BP-hFc (human, UniProt O95998 31-194, limits assumed)
T2 sequence (looked up): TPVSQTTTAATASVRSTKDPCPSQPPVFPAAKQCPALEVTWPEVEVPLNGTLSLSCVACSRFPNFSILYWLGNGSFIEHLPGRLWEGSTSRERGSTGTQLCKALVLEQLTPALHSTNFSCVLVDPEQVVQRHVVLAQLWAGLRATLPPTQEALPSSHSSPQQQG

T3: recombinant hIL-18Rα extracellular domain (human, UniProt Q13478 22-329, biotin label (selection) or fluorescent probe (single-clone FACS), sites not given)
T3 construct: extracellular domain; also called hIL-18Rα ECD; hIL-18Rα-ECD
T3 sequence (looked up): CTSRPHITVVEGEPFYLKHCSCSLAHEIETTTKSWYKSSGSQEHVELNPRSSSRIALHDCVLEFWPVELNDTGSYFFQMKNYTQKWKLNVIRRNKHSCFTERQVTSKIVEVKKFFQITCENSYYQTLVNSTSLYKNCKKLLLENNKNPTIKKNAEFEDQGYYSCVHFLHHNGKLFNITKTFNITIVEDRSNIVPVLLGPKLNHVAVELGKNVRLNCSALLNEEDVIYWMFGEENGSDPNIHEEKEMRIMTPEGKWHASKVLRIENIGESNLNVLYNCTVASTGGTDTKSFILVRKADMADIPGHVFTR

T4: hIL-18Rα ECD-Fc fusion protein (human, UniProt Q13478 22-329)
T4 construct: extracellular domain; captured on Protein A sensor
T4 sequence (looked up): T3 sequence (looked up)

B1: IL-18 variant polypeptide M27 (ligand)
chain: YFPKLRSKLSVIRNLNDQVLFIDQGNRPLFEDMTDSDCRDNAPRTIFIISMYKHSYTRGMAVTISVKCEKISTLSCENKIISFKEMNPPDVIKDTKSDIIFFQYSVPGHDNKMQFESSSYEGYFLACEKERDLFKLILKKEDELGDRSIMFTVQNED
B2: IL-18 variant polypeptide M28 (ligand)
chain: B1 chain with R6A, H54W, Y56G, T57G
B3: IL-18 variant polypeptide M30 (ligand)
chain: B1 chain with R6L, Y56T, T57V, V91S, Y104R
B4: IL-18 variant polypeptide M31 (ligand)
chain: B1 chain with Y56I, T57H, V91I
B5: IL-18 variant polypeptide M34 (ligand)
chain: B1 chain with Y56R, T57N, Y104E
B6: IL-18 variant polypeptide M37 (ligand)
chain: B1 chain with R6G, H54Q, Y56V, T57W, V91N, Y104R
B7: IL-18 variant polypeptide M38 (ligand)
chain: B1 chain with R6S, H54W, Y56G, T57A, Y104I
B8: IL-18 variant polypeptide M39 (ligand)
chain: B1 chain with H54W, Y56P, T57G, Y104L
B9: IL-18 variant polypeptide M40 (ligand)
chain: B1 chain with P3D, R6K, H54P, Y56S, T57W, V91W, Y104R
B10: IL-18 variant polypeptide LM1 (ligand)
chain: B1 chain with R6K, H54G, Y56G, T57A, V91N, Y104R
B11: IL-18 variant polypeptide LM2 (ligand)
chain: B1 chain with H54L, Y56G, T57S, Y104R
B12: IL-18 variant polypeptide LM3 (ligand)
chain: B1 chain with V11I, H54G, Y56G, T57A, V91G, Y104R
B13: IL-18 variant polypeptide LM4 (ligand)
chain: B1 chain with R6K, T57S, V91N, Y104R
B14: IL-18 variant polypeptide LM5 (ligand)
chain: B1 chain with P3G, H54W, Y56S, T57Q, V91N, Y104R
B15: IL-18 variant polypeptide MM1 (ligand)
chain: B1 chain with R6K, H54L, Y56T, T57Q, Y104R
B16: IL-18 variant polypeptide MM2 (ligand)
chain: B1 chain with P3A, R6Y, H54R, Y56S, T57L, V91G, Y104R
B17: IL-18 variant polypeptide MM4 (ligand)
chain: B1 chain with H54L, Y56T, T57I, V91G, Y104R
B18: IL-18 variant polypeptide M32 (ligand)
chain: B1 chain with R6G, H54S, Y56S, T57R, V91N, Y104R
B19: IL-18 variant polypeptide M33 (ligand)
chain: B1 chain with P3E, R6H, H54R, Y56T, T57H, V91N, Y104R
B20: IL-18 variant polypeptide M34 (ligand)
chain: B1 chain with Y56R, T57N, Y104E
B21: IL-18 variant polypeptide M35 (ligand)
chain: B1 chain with H54G, Y56G, T57A, V91G, Y104R
B22: IL-18 variant polypeptide M37 (ligand)
chain: B1 chain with R6G, H54Q, Y56V, T57W, V91N, Y104R
B23: IL-18 variant polypeptide M38 (ligand)
chain: B1 chain with R6S, H54W, Y56G, T57A, Y104I
B24: IL-18 variant polypeptide M39 (ligand)
chain: B1 chain with H54W, Y56P, T57G, Y104L
B25: IL-18 variant polypeptide M40 (ligand)
chain: B1 chain with P3D, R6K, H54P, Y56S, T57W, V91W, Y104R

Assays:
[1] = target: T1, hIL-18 receptor (hIL-18Rα and hIL-18Rβ); assay: cell-based or functional assay
hIL-18BP-hFc = target: T2, hIL-18BP-hFc; assay: cell-based or functional assay
[2] = target: T3, recombinant hIL-18Rα extracellular …; assay: single-clone FACS, yeast display, 10 nM labelled hIL-18Rα ECD
Method in brief: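 Yeast clones displaying IL-18 variants (screening rounds 4 and 5), at equal density, incubated with 10 nM fluorescently labelled hIL-18Rα ECD, then washed. Fraction of fluorescence-positive binding cells per clone measured by flow cytometry.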

[3] = target: T4, hIL-18Rα ECD-Fc fusion protein; assay: BLI (Octet RED96), hIL-18Rα ECD-Fc on Protein A sensor
Description: The affinities of IL-18 variant polypeptides for hIL-18Rα were assessed by Biolayer Interferometry (BLI) on Octet RED96 using Protein A sensor coated with hIL-18Rα ECD-Fc fusion protein, and WT hIL-18 was used as a control.

Row | Binder | EC50 (nM), hIL-18 reporter assay [1] | EC50 (nM) in the Presence of 1 µg/mL hIL-18BP-hFc, hIL-18 reporter assay (hIL-18BP-hFc) | EC50 Fold Change (+BP/-BP), hIL-18 reporter assay (hIL-18BP-hFc) | % of fluorescence positive cells [2] | Kd [3] | Response (nm) [3] | koff [3] | kon [3]
1 | B1 | 0.18 nM | 0.26 nM | 1.44 fold | – | – | – | – | –
2 | B2 | 0.018 nM | 0.042 nM | 2.33 fold | – | – | – | – | –
3 | B3 | 2.5 nM | 1.7 nM | 0.68 fold | – | – | – | – | –
4 | B4 | 0.25 nM | 0.18 nM | 0.72 fold | – | – | – | – | –
5 | B5 | 0.71 nM | 0.9 nM | 1.27 fold | – | – | – | – | –
6 | B6 | 0.14 nM | 0.33 nM | 2.36 fold | – | – | – | – | –
7 | B7 | 0.57 nM | 1.2 nM | 2.11 fold | – | – | – | – | –
8 | B8 | 0.3 nM | 0.44 nM | 1.47 fold | – | – | – | – | –
9 | B9 | 0.12 nM | 0.16 nM | 1.33 fold | – | – | – | – | –
10 | B10 | 0.076 nM | 0.11 nM | 1.45 fold | – | – | – | – | –
11 | B11 | 0.11 nM | 0.055 nM | 0.5 fold | – | – | – | – | –
12 | B12 | 0.052 nM | 0.069 nM | 1.33 fold | – | – | – | – | –
13 | B13 | 0.16 nM | 0.17 nM | 1.06 fold | – | – | – | – | –
14 | B14 | 0.13 nM | 0.12 nM | 0.92 fold | – | – | – | – | –
15 | B15 | 0.97 nM | 0.81 nM | 0.84 fold | – | – | – | – | –
16 | B16 | 0.93 nM | 2.24 nM | 2.41 fold | – | – | – | – | –
17 | B17 | 0.13 nM | 0.43 nM | 3.31 fold | – | – | – | – | –
18 | B18 | – | – | – | 4.21% | 17.3 nM | 0.0381 nm | 0.0234 s⁻¹ | 1.36e+06 M⁻¹ s⁻¹
19 | B19 | – | – | – | 0.17% | 595 nM | 0.0257 nm | 0.0957 s⁻¹ | 161000 M⁻¹ s⁻¹
20 | B20 | – | – | – | 87.5% | 32.8 nM | 0.084 nm | 0.0166 s⁻¹ | 505000 M⁻¹ s⁻¹
21 | B21 | – | – | – | 92.9% | 34.1 nM | 0.129 nm | 0.0156 s⁻¹ | 456000 M⁻¹ s⁻¹
22 | B22 | – | – | – | 95.4% | 21.8 nM | 0.222 nm | 0.00883 s⁻¹ | 404000 M⁻¹ s⁻¹
23 | B23 | – | – | – | 79.5% | 120 nM | 0.0307 nm | 0.0334 s⁻¹ | 278000 M⁻¹ s⁻¹
24 | B24 | – | – | – | 76.5% | 20.6 nM | 0.0605 nm | 0.0221 s⁻¹ | 1.07e+06 M⁻¹ s⁻¹
25 | B25 | – | – | – | 39.6% | 32.6 nM | 0.161 nm | 0.0121 s⁻¹ | 371000 M⁻¹ s⁻¹
